The values below come from patent publication US20250388666A1 (BRIGHAM AND WOMEN S HOSPITAL, published 2025).

What is called Kd is the constant that tells how readily two partners part at equilibrium. Higher therefore signals weaker binding. One may read the koff as the rate constant with which the complex falls apart. A lower koff goes with slow dissociation. By kon is commonly meant the rate constant with which the complex forms. Read a low kon as slower complex formation.

In assay [1] the target is T1, CEACAM1 (Sino Biological) (human, UniProt P13688 35-428, limits assumed).
T1 construct: may be the same as CEACAM1-HIS; also called hCEACAM1; biotinylated soluble CEACAM1
T1 sequence: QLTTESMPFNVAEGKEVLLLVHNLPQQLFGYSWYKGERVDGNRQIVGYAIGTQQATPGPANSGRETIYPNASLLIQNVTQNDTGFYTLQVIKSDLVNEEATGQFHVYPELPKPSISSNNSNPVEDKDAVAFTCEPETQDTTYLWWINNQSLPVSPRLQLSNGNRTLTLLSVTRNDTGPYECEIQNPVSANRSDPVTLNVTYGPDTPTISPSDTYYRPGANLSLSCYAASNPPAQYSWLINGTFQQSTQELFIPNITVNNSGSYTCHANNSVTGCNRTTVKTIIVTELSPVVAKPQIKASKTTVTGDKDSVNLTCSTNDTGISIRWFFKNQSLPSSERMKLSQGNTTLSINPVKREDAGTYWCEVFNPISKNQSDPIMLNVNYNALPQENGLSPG
The assay can be described thus: SPR single-cycle. In outline:
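Humanized affinity-matured IgGs from crude supernatants captured on Protein A to ~100 RU, with CEACAM1 analyte injected at 25–100 nM (three-point, two-fold) in HBS-P+ without regeneration. 200 s association per injection, 300 s single dissociation; reference-channel and blank subtracted.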

Assay [2] deals with T1, CEACAM1 (Sino Biological). The assay can be described thus: SPR multi-cycle, IgG on Protein A. How it is done:
Multi-cycle kinetics analysis was performed on the twelve lead antibodies using a Biacore T200 instrument running Biacore T200 Evaluation Software V3.0.1 (Uppsala, Sweden) to establish an accurate affinity for CEACAM1. The purified antibodies were diluted to a concentration of […] in HBS-P+. At the start of each cycle, each antibody was captured on the Protein A surface to give an RL of ˜100 RU. Following capture, the surface was allowed to stabilize. Kinetic data was obtained using a flow rate of […] to minimize any potential mass transfer effects. For the kinetics analysis, CEACAM1 was used. Multiple repeats of the blank ([…]) and a repeat of a single concentration of the analyte were programmed into the kinetic run in order to check the stability of both the surface and analyte over the kinetic cycles. For kinetic analysis, a two-fold dilution range was selected from 200 to 3.125 nM CEACAM1. The association phase of CEACAM1 was monitored for 275 seconds and the dissociation phase was measured for 250 seconds. Regeneration of the Protein A surface was conducted using two injections of 10 mM glycine-HCL pH 1.5 at the end of each cycle.
The signal from the reference channel Fc1 was subtracted from that of Fc2, Fc3 and Fc4 to correct for differences in non-specific binding to a reference surface, and a global Rmax parameter was used in the 1-to-1 binding model. The relative KD was calculated by dividing the KD of the RSB02 Parent by that of the humanized and affinity matured variants on the same chip.

For assay [3], the target named is T2, CEACAM5 (Sino Biological) (human, UniProt P06731 35-685).
T2 construct: also called hCEACAM5
T2 sequence (looked up): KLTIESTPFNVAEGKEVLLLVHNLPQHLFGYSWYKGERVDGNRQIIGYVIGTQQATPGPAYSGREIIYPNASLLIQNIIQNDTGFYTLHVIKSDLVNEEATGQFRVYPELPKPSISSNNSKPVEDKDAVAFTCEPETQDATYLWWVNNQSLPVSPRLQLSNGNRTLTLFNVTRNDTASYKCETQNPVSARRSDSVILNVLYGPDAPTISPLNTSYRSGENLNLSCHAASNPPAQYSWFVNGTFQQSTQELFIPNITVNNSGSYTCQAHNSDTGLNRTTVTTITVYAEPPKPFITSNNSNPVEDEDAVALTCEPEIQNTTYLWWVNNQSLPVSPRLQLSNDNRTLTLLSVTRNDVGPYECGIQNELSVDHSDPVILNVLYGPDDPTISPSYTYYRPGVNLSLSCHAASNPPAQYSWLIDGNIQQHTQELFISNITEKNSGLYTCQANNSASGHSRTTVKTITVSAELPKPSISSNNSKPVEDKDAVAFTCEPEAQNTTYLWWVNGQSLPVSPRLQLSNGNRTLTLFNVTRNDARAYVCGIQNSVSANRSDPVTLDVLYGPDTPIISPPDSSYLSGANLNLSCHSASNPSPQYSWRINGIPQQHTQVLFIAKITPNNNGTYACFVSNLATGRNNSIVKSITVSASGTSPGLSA
The assay is described as follows: binding ELISA on plate-coated CEACAM (0.5 µg/mL); antibody at 1.67, 0.062 and 0.0069 µg/mL; signal as % of parent IgG on CEACAM1 at 1.67 µg/mL on the same plate. (In general: ELISA stands for enzyme-linked immunosorbent assay.)

For assay [4], the target named is T3, CEACAM3 (Sino Biological) (human, UniProt P40198 35-155, limits assumed).
T3 construct: also called hCEACAM3
T3 sequence (looked up): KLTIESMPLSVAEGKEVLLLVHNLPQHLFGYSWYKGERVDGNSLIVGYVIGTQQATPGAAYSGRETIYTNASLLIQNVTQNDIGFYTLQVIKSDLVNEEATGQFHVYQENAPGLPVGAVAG
Described as above.

Assay [5] has as its target T4, CEACAM6 (Sino Biological) (human, UniProt P40199 35-320).
T4 construct: also called hCEACAM6
T4 sequence (looked up): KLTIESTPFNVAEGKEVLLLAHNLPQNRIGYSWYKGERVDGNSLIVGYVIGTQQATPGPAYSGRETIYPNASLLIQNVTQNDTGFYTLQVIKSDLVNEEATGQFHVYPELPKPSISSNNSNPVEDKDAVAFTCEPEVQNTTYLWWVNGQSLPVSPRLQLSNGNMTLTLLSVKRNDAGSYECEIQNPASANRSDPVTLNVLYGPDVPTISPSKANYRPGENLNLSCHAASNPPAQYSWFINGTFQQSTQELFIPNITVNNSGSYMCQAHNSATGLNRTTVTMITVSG
The assay is described as above.

In assay [6] the target is T5, CEACAM1 on transfected HeLa cells (Homo sapiens (Human), UniProt P13688 35-526).
T5 construct: also called C1
T5 sequence: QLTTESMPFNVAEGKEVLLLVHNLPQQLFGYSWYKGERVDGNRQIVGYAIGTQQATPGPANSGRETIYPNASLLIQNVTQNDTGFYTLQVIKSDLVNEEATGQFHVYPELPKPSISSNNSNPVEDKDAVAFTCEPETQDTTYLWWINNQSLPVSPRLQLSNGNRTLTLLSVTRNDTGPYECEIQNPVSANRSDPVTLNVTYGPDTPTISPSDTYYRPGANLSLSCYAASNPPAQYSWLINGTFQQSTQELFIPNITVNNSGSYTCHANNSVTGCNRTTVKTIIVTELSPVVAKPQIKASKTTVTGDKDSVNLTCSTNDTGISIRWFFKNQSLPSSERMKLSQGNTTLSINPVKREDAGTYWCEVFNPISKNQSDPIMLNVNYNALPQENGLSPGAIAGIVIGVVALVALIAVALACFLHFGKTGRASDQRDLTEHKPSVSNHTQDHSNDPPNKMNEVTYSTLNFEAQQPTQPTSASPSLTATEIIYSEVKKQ
The assay can be described thus: flow cytometry, transfected HeLa. How it is done: (§1) Binding selectivity of the selected antibody variants was assessed by flow cytometry using HeLa cells transfected with vectors expressing CEACAM1, CEACAM5, and CEACAM6, respectively. The resulting cells were used for flow cytometry experiments and were cultured at 37° C., 5.0% CO₂ in Dulbecco's modified Eagle's medium supplemented with 10% fetal bovine serum, penicillin (100 U/ml) and dihydrostreptomycin ([…]). Cell lines were stained with the indicated antibodies followed by fluorochrome-conjugated monoclonal antibody specific for the indicated antibody isotypes such as human IgG4 or mouse IgG1 together with viable dye (DAPI). Data were acquired with a Cytoflex flow cytometer ([…]) and analyzed with FlowJo software (TreeStar, V7.6.5 for Windows).
Background: In flow cytometry, cells or beads pass a laser one at a time.

Assay [7] has as its target T6, CEACAM5 on transfected HeLa cells (UniProt P06731 35-685).
T6 construct: whole, on cells; also called C5
T6 sequence (looked up): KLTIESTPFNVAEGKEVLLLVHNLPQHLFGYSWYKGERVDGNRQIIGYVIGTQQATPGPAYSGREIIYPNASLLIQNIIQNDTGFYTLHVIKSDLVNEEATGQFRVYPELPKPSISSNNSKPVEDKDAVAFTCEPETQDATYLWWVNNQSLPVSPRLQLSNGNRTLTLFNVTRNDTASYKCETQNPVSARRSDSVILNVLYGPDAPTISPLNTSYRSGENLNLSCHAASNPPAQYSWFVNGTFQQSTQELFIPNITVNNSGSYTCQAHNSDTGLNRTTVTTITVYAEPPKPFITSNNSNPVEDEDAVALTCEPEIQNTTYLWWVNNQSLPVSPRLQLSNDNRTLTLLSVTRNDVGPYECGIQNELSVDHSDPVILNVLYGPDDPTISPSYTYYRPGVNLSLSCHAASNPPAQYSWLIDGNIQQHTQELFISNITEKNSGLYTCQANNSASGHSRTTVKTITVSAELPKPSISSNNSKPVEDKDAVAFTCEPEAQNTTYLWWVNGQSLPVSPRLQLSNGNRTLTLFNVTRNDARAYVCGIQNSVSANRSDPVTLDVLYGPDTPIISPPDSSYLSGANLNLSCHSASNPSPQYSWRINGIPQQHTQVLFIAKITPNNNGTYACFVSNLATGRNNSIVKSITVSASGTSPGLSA
The assay is described as follows: flow cytometry, transfected HeLa. How it is done:
as §1

Assay [8] concerns the target T3, CEACAM3 (Sino Biological). The assay can be described thus: binding ELISA on plate-coated CEACAM (0.5 µg/mL); antibody at 1.67, 0.062 and 0.0069 µg/mL; signal as % of parent IgG on CEACAM1 at 1.67 µg/mL on the same plate. The source holds these as a separate data set.

Where two headings read alike, the source gives them in different places.

B1: He9/L3 (antibody, IgG4, V domains shown)
VH: EVQLLESGGGLVQPGGSLRLSCAASGFSFSDYYLYWVRQAPGKGLEWVATISVGGGQTSYADSVKGRFTISRDNSKNTLYLQMNSLRAEDTAMYYCARAMYYGPAWFAYWGQGTLVTVSS
VL: DIVMTQSPDSLAVSLGERATINCKSSQSLLNSANQKNYLAWYQQKPGQPPKLLIYFASTRESGVPDRFSGSGSGTDFTLTISSLQAEDVAVYYCQSHFPFPFTFGGGTKVEIK
notes: IgG4 S241P, kappa; also called He9 / 3
B1: in assay [1], binding was put at a Kd of 27 nM and the “fold better than Parent (KD)” value was 5.85 fold. Besides, in assay [2], the affinity, expressed as Kd, was 31.6 nM; the koff was 0.00139 s⁻¹; the kon stood at 44000 M⁻¹ s⁻¹; the “relative KD to Parent” value worked out at 4.15 ratio. Also, in assay [3], the binding result is given as “binds”.

B2: Parent VH/L4#2 (antibody, IgG4, V domains shown)
VH: EVQLLESGGGLVQPGGSLRLSCAASGFSFSDYYLYWVRQAPGKGLEWVATISVGGGQTSYADSVKGRFTISRDNSKNTLYLQMNSLRAEDTAMYYCTRGLYYGPAWFAYWGQGTLVTVSS
VL: DIVMTQSPDSLAVSLGERATINCKSSQSLLNSANQKNYLAWYQQKPGQPPKLLIYFASTRESGVPDRFSGSGSGTDFTLTISSLQAEDVAVYYCQSHYPYPYTFGGGTKVEIK
notes: IgG4 S241P, kappa; also called VHp/L4 #2; VH2 N56Q / 4#2
Regarding B2, in assay [1], binding was characterised by a dissociation constant (Kd) of 163 nM and the “fold better than Parent (KD)” value was determined as 3.38 fold. In assay [2], the Kd worked out at 147 nM, the koff came out at 0.00437 s⁻¹, the kon stood at 29800 M⁻¹ s⁻¹ and the “relative KD to Parent” value worked out at 1.3 ratio. Also, in assay [4], the binding result is “no binding (tested: 1.67 µg/mL)”. Moreover, the binding result in assay [5] is “no binding (tested: 1.67 µg/mL)”.

B3: Parent VH/L18 (antibody, IgG4, V domains shown)
VH: EVQLLESGGGLVQPGGSLRLSCAASGFSFSDYYLYWVRQAPGKGLEWVATISVGGGQTSYADSVKGRFTISRDNSKNTLYLQMNSLRAEDTAMYYCTRGLYYGPAWFAYWGQGTLVTVSS
VL: DIVMTQSPDSLAVSLGERATINCKSSQSLLNSANQKNYLAWYQQKPGQPPKLLIYFASTRESGVPDRFSGSGSGTDFTLTISSLQAEDVAVYYCQSHFPYPFTFGGGTKVEIK
notes: IgG4 S241P, kappa; also called VHp/L18; VH2 N56Q / 18
Turning to B3, in assay [1], binding was put at a Kd of 56 nM and the “fold better than Parent (KD)” value was 2.83 fold. Besides, in assay [2], binding was characterised by a dissociation constant (Kd) of 101 nM, the off-rate constant (koff) came out at 0.00362 s⁻¹, the kon was 35700 M⁻¹ s⁻¹ and the “relative KD to Parent” value stood at 1.84 ratio. In assay [4], the binding result is reported as “no binding (tested: 1.67 µg/mL)”. Besides, the binding result in assay [5] is “no binding (tested: 1.67 µg/mL)”.

B4: VH1 N56Q/VK4 S27(f)A (antibody, human IgG4, V domains shown)
VH: EVQLLESGGGLVQPGGSLRLSCAASGFSFSDYYLYWVRQAPGKGLEWVATISVGGGQTSYPDSVKGRFTISRDNSKNTLYLQMNSLRAEDTAMYYCTRGLYYGPAWFAYWGQGTLVTVSS
VL: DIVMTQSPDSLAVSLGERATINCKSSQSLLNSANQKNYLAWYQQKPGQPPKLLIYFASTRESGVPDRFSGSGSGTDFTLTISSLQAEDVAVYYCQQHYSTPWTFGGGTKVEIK
notes: aglycosylated humanized variant; human IgG4
On to B4, for which the relative fluorescence intensity was determined as 87.1 in assay [6] and 0.0622 in assay [7].

B5: He17/L1 (antibody, IgG4, V domains shown)
VH: EVQLLESGGGLVQPGGSLRLSCAASGFSFSDYYLYWVRQAPGKGLEWVATISVGGGQTSYADSVKGRFTISRDNSKNTLYLQMNSLRAEDTAMYYCTRARTYGPAWFAYWGQGTLVTVSS
VL: DIVMTQSPDSLAVSLGERATINCKSSQSLLNSANQKNYLAWYQQKPGQPPKLLIYFASTRESGVPDRFSGSGSGTDFTLTISSLQAEDVAVYYCQSHYPFYYTFGGGTKVEIK
notes: IgG4 S241P, kappa; also called 17 / 1; H17/L1
Regarding B5, in assay [1], the Kd worked out at 78 nM and the “fold better than Parent (KD)” value is 2.03 fold. In assay [2], the affinity, expressed as Kd, was 13.5 nM; the koff amounted to 0.00409 s⁻¹; the kon is 302000 M⁻¹ s⁻¹; the “relative KD to Parent” value was 6.31 ratio. Besides, the binding result in assay [8] is “no binding (tested: 1.67 µg/mL)”.
